US20210395344A1
Changes are numbered by the printed parent chain.

B1: SARS-CoV-2 variant 1-31 (antibody, V domains shown)
VH: EVQLLESGGGLVQPGGSLRLSCAASGFTFSSYAMNWVRQAPGKGLEWVSAISGSGGSTFYADSVKGRFTISRDNSKNTLYLQMNSLRAEDTAVYYCTRPPYGDYGDYWGQGTLVTVSS
VL: QSALTQPASVSGSPGQSITISCTGTSSDVGKYNLVSWYQQHPGKAPKLMIYEGSQRPSGVSNRFSGSKSGNTASLTISGLQAEDEADYYCCSYAGSRTPVVFGGGTKLTVL
B2: SARS-CoV-2 variant 1-4 (antibody, V domains shown)
VH: EVQLLESGGGLVQPGGSLRLSCAASGFTFSSQAMSWVRQAPGKGLEWVSAISGSGGGTYYADSVKGRFTISRDNSKNTLYLQMNSLRAEDTAVYYCAKDRRFGEFDPWGQGTLVTVSS
VL: B1 VL with K31T, R97S, T98S, P99F
B3: SARS-CoV-2 variant 1-32 (antibody, V domains shown)
VH: B1 VH with N35Y
VL: QSALTQPASVSGSPGQSITISCTGTSSDVGGYNLVSWYQQHPGKAPKLMIYEGNKRPSGVSNRFSGSKSGNTASLTISGLQAEDEADYYCCSYAGSSTFPVVFGGGTKLTVL
B4: SARS-CoV-2 variant 1-5 (antibody, V domains shown)
VH: B2 VH
VL: B1 VL with D28G, K31S, G53A, Q55K, R97Y, P99F, V100A
B5: SARS-CoV-2 variant 1-30 (antibody, V domains shown)
VH: B1 VH with N35T
VL: B1 VL with S27R, K31S, S54T, Q55K
B6: SARS-CoV-2 variant 1-3 (antibody, V domains shown)
VH: B2 VH
VL: B1 VL with T25I, K31S, S54T, Q55K, R97S, T98S, P99F
B7: SARS-CoV-2 variant 1-28 (antibody, V domains shown)
VH: EVQLLESGGGLVQPGGSLRLSCAASGFTFSSYGMSWVRQAPGKGLEWVSAISGSGGGTYYADSVKGRFTISRDNSKNTLYLQMNSLRAEDTAVYYCASSSSWQFDYWGQGTLVTVSS
VL: B1 VL with D28G, K31S, R97S, P99H, V100Y

These binders were tested against COVID S1 RBD Fc fusion (Antigen 1) (SARS-CoV-2), P0DTC2 (assay: phage ELISA). Conditions: remark: other sources report otherwise.

Compared with B1, B2 is higher in specificity ELISA, fold over background (fold over background): 1.3 for the first, 1.4 for the second.

First: B3
Second: B4
The specificity ELISA, fold over background (fold over background) of the first is lower: 1.5 for the first, 1.6 for the second.

Compared with B5, B6 is higher in specificity ELISA, fold over background (fold over background): 1.7 for the first, 1.8 for the second.

With B7 the specificity ELISA, fold over background (fold over background) was 1.1.

First: B1
Second: B2
The specificity ELISA, percent binding relative to Acro S1 of the first is lower: 4.3% for the first, 138% for the second.

Going from B3 to B4, the specificity ELISA, percent binding relative to Acro S1 rises from 13.1% to 108%.

First: B5
Second: B6
The specificity ELISA, percent binding relative to Acro S1 of the first is lower: 9.8% for the first, 109% for the second.

Work on B7 yielded a specificity ELISA, percent binding relative to Acro S1 of 113%.
